US20220348651A1, “ENTPD2 ANTIBODIES, COMBINATION THERAPIES, AND METHODS OF USING THE ANTIBODIES AND COMBINATION THERAPIES” (Novartis AG, priority 2019, published 2022)

T1: mouse ENTPD2 (Mus musculus, UniProt O55026)
T1 construct: expressed in transfected cells; host or cells: NIH/3T3 (retroviral transduction)
T1 sequence (O55026 1-495): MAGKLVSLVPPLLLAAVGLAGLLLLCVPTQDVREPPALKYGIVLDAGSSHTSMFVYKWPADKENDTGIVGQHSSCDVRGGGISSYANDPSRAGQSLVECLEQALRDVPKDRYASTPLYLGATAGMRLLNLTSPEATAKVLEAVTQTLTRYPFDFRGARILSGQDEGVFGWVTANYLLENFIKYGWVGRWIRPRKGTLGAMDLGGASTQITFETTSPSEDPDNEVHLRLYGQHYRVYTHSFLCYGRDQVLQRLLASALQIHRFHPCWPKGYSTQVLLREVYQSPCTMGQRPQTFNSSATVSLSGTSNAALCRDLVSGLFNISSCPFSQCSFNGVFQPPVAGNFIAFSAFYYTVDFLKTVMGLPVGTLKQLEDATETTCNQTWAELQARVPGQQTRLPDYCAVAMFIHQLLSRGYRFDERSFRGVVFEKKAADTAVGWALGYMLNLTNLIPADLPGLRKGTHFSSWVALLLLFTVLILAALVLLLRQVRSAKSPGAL

T2: ENTPD2 (Homo sapiens, UniProt Q9Y5L3)
T2 sequence (Q9Y5L3 1-495): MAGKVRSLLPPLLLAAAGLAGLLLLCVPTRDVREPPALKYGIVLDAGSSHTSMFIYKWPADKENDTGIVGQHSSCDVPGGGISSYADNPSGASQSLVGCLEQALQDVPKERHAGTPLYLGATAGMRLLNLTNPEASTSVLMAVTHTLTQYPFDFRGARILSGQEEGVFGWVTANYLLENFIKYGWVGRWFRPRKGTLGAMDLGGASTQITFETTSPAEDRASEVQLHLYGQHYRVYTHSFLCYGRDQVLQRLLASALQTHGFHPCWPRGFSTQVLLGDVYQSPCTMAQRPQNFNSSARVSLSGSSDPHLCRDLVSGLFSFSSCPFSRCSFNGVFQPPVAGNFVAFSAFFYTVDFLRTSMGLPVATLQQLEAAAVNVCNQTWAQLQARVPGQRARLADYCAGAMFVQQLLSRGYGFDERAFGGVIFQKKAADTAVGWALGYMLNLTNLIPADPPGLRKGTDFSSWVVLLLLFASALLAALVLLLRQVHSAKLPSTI

T3: recombinant human ENTPD2 (residues 29-462) (Homo sapiens, UniProt Q9Y5L3)
T3 construct: residues 29-462 of human or cyno ENTPD2 were cloned into expression vector; GP67 signal peptide (N); made in house; host or cells: High Five (Trichoplusia ni) insect cells, baculovirus
T3 sequence (Q9Y5L3 29-462): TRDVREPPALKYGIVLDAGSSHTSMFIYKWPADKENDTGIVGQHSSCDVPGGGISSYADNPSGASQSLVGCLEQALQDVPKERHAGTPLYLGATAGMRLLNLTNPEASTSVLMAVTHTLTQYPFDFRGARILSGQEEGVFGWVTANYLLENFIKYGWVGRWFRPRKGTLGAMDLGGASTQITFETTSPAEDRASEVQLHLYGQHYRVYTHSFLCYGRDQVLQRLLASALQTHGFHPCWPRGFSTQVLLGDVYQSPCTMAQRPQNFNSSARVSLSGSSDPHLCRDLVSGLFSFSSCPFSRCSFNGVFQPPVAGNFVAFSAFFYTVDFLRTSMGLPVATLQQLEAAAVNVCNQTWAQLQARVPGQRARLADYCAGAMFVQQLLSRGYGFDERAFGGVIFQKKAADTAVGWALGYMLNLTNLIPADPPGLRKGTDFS


Experiments:
[1] = biological target: T1, mouse ENTPD2; assay: Mouse ENTPD2 NIH/3T3 cell-based functional assay; conditions: mouse ENTPD2 NIH/3T3 cells, 100 nM
Excerpt: (§1) Biochemical and cell-based functional assays were developed in-house to understand functional impact of anti-ENTPD2 Abs against purified extracellular domain of ENTPD2 (residues 29-462), as well as against the fully intact protein in the context of the native cell-based conformation. ENTPD2 hydrolyzes ATP to ADP, which can subsequently be detected using the HTRF Transcreener ADP2 TR-FRET Red Assay (BellBrook Labs, Madison, Wis.) where ENTPD2-produced ADP would compete with the ADP Tracer for binding to the anti-ADP-Tb antibody. The resulting signal is inversely proportional to the concentration of ADP in the sample.
To establish cell-based functional assays, human/cyno/mouse ENTPD2-engineered NIH/3T3 cells or RKO (ATCC, Manassa Va.) colorectal cancer cells with endogenous ENTPD2 expression were plated overnight at 150, 200 and 250 cells per well for NIH/3T3 mouse, cyno and human ENTPD2 lines, respectively, or 1000 cells per well for RKO in 384-well tissue culture plate, in 30 μl per well (Perkin Elmer, Waltham, Mass.). The following day cells were pre-incubated with Anti-ENTPD2 Abs in dose response for 60 min at 37° C., 5% CO2 (10 μl of 5× antibody dose per well), and subsequently stimulated with a final concentration of 10 μM ATP (Teknova, Hollister, Calif.) for 20 minutes at room temperature (10 μl of 5× (50 μM) ATP per well). Reactions were quenched with 40 mM EDTA/40 mM EGTA, 25 μl per well, and 15 μl of quenched media was transferred to low volume Proxiplates (PerkinElmer, Waltham, Mass.) for ADP detection. ADP production was detected with the Transcreener ADP2 TR-FRET Red Assay (BellBrook Labs, Madison, Wis.) with a final concentration of 4 nM ADP2 antibody and 13.4 nM of ADP Tracer in wells (4× solution was prepared and 5 μL of “Detection Reagent Mix” was added to the quenched conditioned media). Plates were incubated with detection reagents for 1 hour at room temperature prior to reading plates in HTRF mode.
(§2) HTRF signal (Emission at 620 nm and 665 nm) was assessed in both assays using the Envision plate reader in HTRF mode (Perkin Elmer, Waltham, Mass.). HTRF ratio was determined using the following formula: HTRF ratio=R=Emission at 665 nm/Emission at 620 nm×10,000. Subsequently % Residual Activity and % Inhibition were determined as follows:
(§3) Where R0% is the HTRF ratio of the negative control (0% enzyme activity), and R100% is the HTRF ratio of the positive control (100% enzyme activity). Data were analyzed in Microsoft Excel and graphed using GraphPad's Prism 7.0 software and IC50 values were obtained using non-linear regression, log (agonist) vs. response-variable slope (four parameters) analysis.
Anti-ENTPD2 mAb13 was identified as a mouse ENTPD2 selective Ab (FACS EC50 3-4 nM) with no binding to human or cyno ENTPD2.

[2] = biological target: T2, ENTPD2; assay: Hybridoma mAb screen: cell-based assay for inhibition of ATP hydrolysis by ENTPD2; conditions: hybridoma-derived mAbs
Excerpt: Hybridoma-derived mAbs were screened in a cell-based assay for inhibition of ATP hydrolysis by ENTPD2.

[3] = biological target: T3, recombinant human ENTPD2 (residues 29-462); assay: Biochemical human ENTPD2 functional assay (Transcreener ADP2 TR-FRET); conditions: FIG. 15
Excerpt: as §1
To evaluate activity of anti-ENTPD2 Abs in the ENTPD2 biochemical assay, anti-ENTPD2 Abs and recombinant ENTPD2 (residues 29-462) were diluted in reaction buffer (50 mM HEPES, pH 7.1, 10 mM MgCl2, 0.01% BSA) to the desired concentration. 4 μL per well of the ENTPD2 solution and 2 μL per well of the Anti-ENTPD2 Ab solution were transferred into a ProxiPlate (PerkinElmer, Waltham, Mass.) and incubated for 30 min at room temperature. Reaction was then initiated via addition of 2 μl of ATP (final assay concentration of 1 μM), and the sample was incubated for 25 min at room temperature. […]
as §2, §3

Molecule	% Inhibition at 100 nM (±Std Err) [1]	inhibition of the catalytic activity of recombinant human ENTPD2 [3]	other results
mAb14: anti-mouse ENTPD2 antibody, T30 variant of mAb13; HC SEQ ID NO: 211, LC SEQ ID NO: 204 (antibody) heavy: QVQLVQSGAELKQPGQSVKISCKASGYTFWHYGMNWVKQAPGQGLKWMGWINTDTGNPTYADDFKGRFVFSLDTSVSTAYLQISNLKNEDTATYYCVRYGTLYSGYGFFFDSWGQGTLVTVSSAKTTAPSVYPLAPVCGDTTGSSVTLGCLVKGYFPEPVTLTWNSGSLSSGVHTFPAVLQSDLYTLSSSVTVTSSTWPSQSITCNVAHPASSTKVDKKIEPRGPTIKPCPPCKCPAPNLLGGPSVFIFPPKIKDVLMISLSPIVTCVVVDVSEDDPDVQISWFVNNVEVHTAQTQTHREDYNSTLRVVSALPIQHQDWMSGKEFKCKVNNKDLPAPIERTISKPKGSVRAPQVYVLPPPEEEMTKKQVTLTCMVTDFMPEDIYVEWTNNGKTELNYKNTEPVLDSDGSYFMYSKLRVEKKNWVERNSYSCSVVHEGLHNHHTTKSFSRTPGK light: DIMMTQSPSSLSVSAGEKATITCKSSQSLFNSNTNKNYLNWYLQKPGQSPKLLFYYASTRHTGVPDRFIGSGSGTDFTLTITSVQDEDLADYYCQQWYSYPWTFGPGTKLEIKRADAAPTVSIFPPSSEQLTSGGASVVCFLNNFYPKDINVKWKIDGSERQNGVLNSWTDQDSKDSTYSMSSTLTLTKDEYERHNSYTCEATHKTSTSPIVKSFNRNEC	79 ± 2.2%		
mAb15: anti-mouse ENTPD2 antibody, T30 variant of mAb13; HC SEQ ID NO: 218, LC SEQ ID NO: 204 (antibody) heavy: QVQLVQSGAELKQPGQSVKISCKASGYTFHHYGMNWVKQAPGQGLKWMGWINTDTGNPTYADDFKGRFVFSLDTSVSTAYLQISNLKNEDTATYYCVRYGTLYSGYGFFFDSWGQGTLVTVSSAKTTAPSVYPLAPVCGDTTGSSVTLGCLVKGYFPEPVTLTWNSGSLSSGVHTFPAVLQSDLYTLSSSVTVTSSTWPSQSITCNVAHPASSTKVDKKIEPRGPTIKPCPPCKCPAPNLLGGPSVFIFPPKIKDVLMISLSPIVTCVVVDVSEDDPDVQISWFVNNVEVHTAQTQTHREDYNSTLRVVSALPIQHQDWMSGKEFKCKVNNKDLPAPIERTISKPKGSVRAPQVYVLPPPEEEMTKKQVTLTCMVTDFMPEDIYVEWTNNGKTELNYKNTEPVLDSDGSYFMYSKLRVEKKNWVERNSYSCSVVHEGLHNHHTTKSFSRTPGK light: DIMMTQSPSSLSVSAGEKATITCKSSQSLFNSNTNKNYLNWYLQKPGQSPKLLFYYASTRHTGVPDRFIGSGSGTDFTLTITSVQDEDLADYYCQQWYSYPWTFGPGTKLEIKRADAAPTVSIFPPSSEQLTSGGASVVCFLNNFYPKDINVKWKIDGSERQNGVLNSWTDQDSKDSTYSMSSTLTLTKDEYERHNSYTCEATHKTSTSPIVKSFNRNEC	76 ± 3.4%		
mAb16: hybridoma-derived lead inhibitory anti-human ENTPD2 mAb; VH/VL DNA SEQ ID NO: 226/230 (antibody, V domains shown) VH: DIQLQESGPGLVKPSQSLSLTCSVTGYSITSGYYWNWIRQFPGNKLEWMGYISYDGDNNYNPSLKNRISITRDTSKNQFFLKLSSVTTEDTATYYCAGGYYRYGLSYYYVMDYWGQGTSVTVSS VL: DTVLTQSPASLAVSLGQRATISCKASQSVDYDGNSYMNWYQQKPGQPPKLLIYAASNLESGIPARFSGSGSGTDFTLNIHPVEEEDAATYYCQQSNEDPPTFGGGTKLEIK			inhibition of ATP hydrolysis by ENTPD2 [2]: lead inhibitory mAbs
mAb19: anti-human ENTPD2 antibody of Table 1; VH SEQ ID NO: 250, VL SEQ ID NO: 257 (antibody, V domains shown) VH: EVQLQQFGAELVKPGTSVKISCKASGYTFTDYNMDWVKQSHGKSLEWIGDINPNYDITTYNQRFKGKATLTVDKSSSTAYMELRSLTSEDTAVYYCARRGFFPYYGNSYYYFDVWGAGTTVTVSS VL: QIVLTQSPTIMSASLGEEITLTCSASSSVSYMHWYQQKSGTSPKLLIYSTSNLASGVPSRFSGSGSGTFYSLTISSVEAEDAADYYCHQWSNYPWTFGGGTKLEIK		potently inhibit	
mAb21: anti-human ENTPD2 antibody of Table 1; VH SEQ ID NO: 281, VL SEQ ID NO: 287 (antibody, V domains shown) VH: EVQLQQSGPELVKPGASVKISCKTSGYTFTEYTMHWVKQSHGKSLEWIGGINPNNGITTYNQKFKGKATLTVDKSSSTAYMDLRSLTSEGSAVYYCARRGFPIYYYGTSLYYFDYWGQGTTLTVSS VL: QIVLTQSPAIMSASLGEEITLTCSASSSVSYMHWYQQRSGTSPKLLIYTTSNLASGVPSRFSGSGSGTFYSLTISSVEAEDAADYYCHQWSSYPWTFGGGTKLEIK		potently inhibit	
